Assays:
HLA-C*12:03 = experiment: IEDB peptide-MHC binding, purified MHC/direct/fluorescence; filed as Kd, often an IC50 or EC50 that approximates it; ≥ and ≤ were set here for values at or beyond the usual limits of such assays
HLA-C*05:01 = experiment: as above
HLA-A*24:03 = experiment: as above; settings: source organism: Mycobacterium tuberculosis
HLA-B*58:01 [1] = experiment: IEDB peptide-MHC binding, purified MHC/competitive/radioactivity; filed as Kd, often an IC50 or EC50 that approximates it; ≥ and ≤ were set here for values at or beyond the usual limits of such assays
HLA-A*02:06 = experiment: IEDB peptide-MHC binding, purified MHC/competitive/fluorescence; filed as Kd, often an IC50 or EC50 that approximates it; ≥ and ≤ were set here for values at or beyond the usual limits of such assays; settings: source organism: Bacillus cereus
HLA-A*02:01 [2] = experiment: as above
HLA-B*27:05 = experiment: IEDB peptide-MHC binding, purified MHC/direct/fluorescence; filed as Kd, often an IC50 or EC50 that approximates it; ≥ and ≤ were set here for values at or beyond the usual limits of such assays
HLA-B*46:01 [3] = experiment: as above
HLA-B*58:01 [4] = experiment: as above
HLA-B*57:01 [5] = experiment: as above
HLA-B*40:01 = experiment: as above
HLA-B*39:01 [6] = experiment: as above; settings: source organism: Bacillus anthracis str. A0465
HLA-B*08:02 = experiment: as above; settings: source organism: Bacillus anthracis str. A0465
HLA-A*01:01 = experiment: as above
HLA-A*03:01 [7] = experiment: as above
HLA-A*69:01 [8] = experiment: as above; settings: source organism: Bacillus anthracis
HLA-B*48:01 = experiment: as above
HLA-A*11:01 = experiment: as above
HLA-B*15:17 = experiment: as above; settings: source organism: Bacillus anthracis
HLA-A*31:01 = experiment: as above
HLA-B*15:01 [9] = experiment: as above
HLA-A*26:01 = experiment: IEDB peptide-MHC binding, purified MHC/competitive/fluorescence; filed as Kd, often an IC50 or EC50 that approximates it; ≥ and ≤ were set here for values at or beyond the usual limits of such assays; settings: source organism: Entamoeba histolytica
HLA-A*68:02 = experiment: as above; settings: source organism: Entamoeba histolytica
HLA-A*02:11 = experiment: as above; settings: source organism: Entamoeba histolytica
HLA-A*29:02 [10] = experiment: as above; settings: source organism: Entamoeba histolytica
HLA-B*27:03 = experiment: as above; settings: source organism: Entamoeba histolytica
HLA-B*46:01 [11] = experiment: as above; settings: source organism: Entamoeba histolytica
HLA-B*57:01 [12] = experiment: as above; settings: source organism: Entamoeba histolytica
HLA-A*02:16 = experiment: as above; settings: source organism: Entamoeba histolytica
HLA-B*39:01 [13] = experiment: as above; settings: source organism: Entamoeba histolytica
HLA-A*03:01 [14] = experiment: as above; settings: source organism: Entamoeba histolytica
HLA-A*69:01 [15] = experiment: as above; settings: source organism: Entamoeba histolytica
HLA-A*02:19 = experiment: as above; settings: source organism: Entamoeba histolytica
HLA-A*02:03 = experiment: as above; settings: source organism: Entamoeba histolytica
HLA-A*02:12 = experiment: as above; settings: source organism: Entamoeba histolytica
HLA-B*15:01 [16] = experiment: as above; settings: source organism: Entamoeba histolytica
HLA-B*35:01 = experiment: IEDB peptide-MHC binding, purified MHC/competitive/radioactivity; filed as Kd, often an IC50 or EC50 that approximates it; ≥ and ≤ were set here for values at or beyond the usual limits of such assays; settings: source organism: Dengue virus 4 Philippines/H241/1956
HLA-B*57:01 [17] = experiment: as above
HLA-B*53:01 = experiment: as above; settings: source organism: Dengue virus 4 Philippines/H241/1956
HLA-B*51:01 = experiment: IEDB peptide-MHC binding, purified MHC/competitive/fluorescence; filed as Kd, often an IC50 or EC50 that approximates it; ≥ and ≤ were set here for values at or beyond the usual limits of such assays; settings: source organism: Mycobacterium tuberculosis H37Ra
HLA-B*83:01 = experiment: as above; settings: source organism: Mycobacterium tuberculosis H37Ra
HLA-B*15:42 = experiment: as above; settings: source organism: Mycobacterium tuberculosis H37Ra
HLA-B*45:06 = experiment: as above; settings: source organism: Mycobacterium tuberculosis H37Ra
HLA-A*29:02 [18] = experiment: IEDB peptide-MHC binding, purified MHC/direct/fluorescence; filed as Kd, often an IC50 or EC50 that approximates it; ≥ and ≤ were set here for values at or beyond the usual limits of such assays; settings: source organism: Mycobacterium tuberculosis C
HLA-B*44:02 = experiment: as above; settings: source organism: Mycobacterium tuberculosis C
HLA-A*02:01 [19] = experiment: as above; settings: source organism: Mycobacterium tuberculosis C
HLA-B*08:01 = experiment: as above; settings: source organism: Mycobacterium tuberculosis C
[20] = source organism: Mycobacterium tuberculosis C
[21] = source organism: Dengue virus 1 Brazil/97-11/1997
[22] = source organism: Bacillus cereus
[23] = source organism: Bacillus anthracis
[24] = source organism: Entamoeba histolytica
[25] = source organism: Dengue virus 4 Philippines/H241/1956

In the case of AMAGNPVVI, the Kd (HLA-C*12:03; source organism: Leishmania donovani) is reported as 0.727 µM.
LYDAVAALF was tested, and the Kd (HLA-C*05:01; [20]) was 0.073 µM and the Kd (HLA-A*24:03) was at most 0.0001 µM.
In the case of PSVVETLEQM, the Kd (HLA-B*58:01 [1]; [21]) is reported as 0.321 µM.
MSDIFASEV showed a Kd (HLA-A*02:06) of 0.0121 µM, a Kd (HLA-A*02:01 [2]; [22]) of 0.0302 µM and a Kd (HLA-C*05:01; [22]) of at most 0.001 µM. The Kd (HLA-B*27:05; [23]) was at least 20 µM, the Kd (HLA-B*46:01 [3]; [23]) was at least 20 µM and the Kd (HLA-B*58:01 [4]; [23]) was at least 20 µM. It also gave a Kd (HLA-B*57:01 [5]; [23]) of at least 20 µM, a Kd (HLA-B*40:01; [23]) of at least 20 µM and a Kd (HLA-B*39:01 [6]) of 0.467 µM. It also gave a Kd (HLA-B*08:02) of at least 20 µM, a Kd (HLA-A*01:01; [23]) of 0.0073 µM and a Kd (HLA-A*03:01 [7]; [23]) of at least 20 µM. The Kd (HLA-A*69:01 [8]) was at most 0.001 µM, the Kd (HLA-B*48:01; [23]) was at least 20 µM and the Kd (HLA-A*11:01; [23]) was at least 20 µM. For the same sequence, the Kd (HLA-B*15:17) was 0.0021 µM, the Kd (HLA-A*31:01; [23]) was at least 20 µM and the Kd (HLA-B*15:01 [9]; [23]) was at least 20 µM.
With RASHFRKLF the Kd (HLA-A*26:01) was at least 20 µM, the Kd (HLA-A*68:02) was at least 20 µM and the Kd (HLA-A*02:11) was at least 20 µM. It also gave a Kd (HLA-A*29:02 [10]) of at least 20 µM, a Kd (HLA-B*27:03) of at least 20 µM and a Kd (HLA-B*46:01 [11]) of at least 20 µM. The Kd (HLA-B*57:01 [12]) was 0.165 µM, the Kd (HLA-A*02:16) was at least 20 µM and the Kd (HLA-B*39:01 [13]) was at least 20 µM. It also gave a Kd (HLA-A*03:01 [14]) of at least 20 µM, a Kd (HLA-A*69:01 [15]) of at least 20 µM and a Kd (HLA-A*02:01 [2]; [24]) of at least 20 µM. It also gave a Kd (HLA-A*02:19) of at least 20 µM, a Kd (HLA-A*02:03) of at least 20 µM and a Kd (HLA-A*02:12) of at least 20 µM. It also gave a Kd (HLA-B*15:01 [16]) of at least 20 µM and a Kd (HLA-C*12:03; [24]) of 0.019 µM.
For MAILGETAW, the Kd (HLA-B*35:01) was 0.102 µM, the Kd (HLA-B*58:01 [1]; [25]) was 0.00347 µM and the Kd (HLA-B*57:01 [17]; [25]) was 0.0235 µM. For the same sequence, the Kd (HLA-B*53:01) was 0.00705 µM.
Sequence FPRYPLNVL has a Kd (HLA-B*51:01) of at least 20 µM, a Kd (HLA-B*83:01) of 2.65 µM and a Kd (HLA-B*15:42) of at least 5 µM. The Kd (HLA-B*45:06) was at least 5 µM, the Kd (HLA-C*05:01; source organism: Mycobacterium tuberculosis H37Ra) was at least 20 µM and the Kd (HLA-B*27:05; [20]) was at least 20 µM. The Kd (HLA-A*29:02 [18]) was at least 20 µM, the Kd (HLA-B*46:01 [3]; [20]) was at least 20 µM and the Kd (HLA-B*58:01 [4]; [20]) was at least 20 µM. The Kd (HLA-B*57:01 [5]; [20]) was at least 20 µM, the Kd (HLA-B*40:01; [20]) was at least 20 µM and the Kd (HLA-B*44:02) was at least 20 µM. The Kd (HLA-A*01:01; [20]) was at least 20 µM, the Kd (HLA-A*03:01 [7]; [20]) was at least 20 µM and the Kd (HLA-A*02:01 [19]) was at least 20 µM. It also gave a Kd (HLA-B*48:01; [20]) of at least 20 µM, a Kd (HLA-A*11:01; [20]) of at least 20 µM and a Kd (HLA-B*08:01) of 1.04 µM. The Kd (HLA-A*31:01; [20]) was at least 20 µM and the Kd (HLA-B*15:01 [9]; [20]) was at least 20 µM.
KTSAGVNMCT gave a Kd (HLA-B*58:01 [1]; [21]) of 4.52 µM and a Kd (HLA-B*57:01 [17]; [21]) of 1.13 µM.

Reference: the Immune Epitope Database (IEDB)
